Measurements published in article PMC11406361, “Several orphan solute carriers functionally identified as organic cation transporters: Substrates specificity compared with known cation transporters” (The Journal of Biological Chemistry, 2024).

Assays:
Assay in all cases: cells, lysate or membranes
C[N+](C)(C)CCO = details: other: SLC35E1, HEK293, net uptake over empty vector cells; pH 7.4
CC(N)Cc1ccccc1 = details: pH 7.4
CN1CCC[C@H]1c1cccnc1 = details: other: SLC38A10, HEK293, net uptake over empty vector cells; pH 7.4
Clc1cccc(Cl)c1N=C1NCCN1 = details: other: SLC38A10, HEK293, net uptake over empty vector cells; pH 7.4

| Substance | Km (C[N+](C)(C)CCO) | Vmax (C[N+](C)(C)CCO) [µmol/min/mg] | Vmax/Km (C[N+](C)(C)CCO) [µL/min/mg] | Km (CC(N)Cc1ccccc1) | Km (CN1CCC[C@H]1c1cccnc1) | Km (Clc1cccc(Cl)c1N=C1NCCN1) | Vmax (Clc1cccc(Cl)c1N=C1NCCN1) [µmol/min/mg] | Vmax/Km (Clc1cccc(Cl)c1N=C1NCCN1) [µL/min/mg] |
| --- | --- | --- | --- | --- | --- | --- | --- | --- |
| SLC35E1 (Homo sapiens) | 91.6 (±39.8) μM | 8.71e-05 | 0.95 | – | – | – | – | – |
| SLC38A10 (Homo sapiens) | – | – | – | 120 (±44.9) μM | 62.0 (±35.6) μM | 162 (±141) μM | 0.000427 | 2.64 |
